Here are results for six molecules from PMC6779754, “Brain-specific homeobox Bsx specifies identity of pineal gland between serially homologous photoreceptive organs in zebrafish”.

Positions count from the first letter of the chain named.

For data set [1], the target named is T1, GST-Bsx (zebrafish, UniProt Q6R3Q6 1-227). Put plainly: competition; competitor vs BSXRE probe (EMSA); EMSA: DIG Gel Shift Kit (Roche) per manufacturer, 2.0 pmol GST-Bsx with 32 fmol DIG-oligonucleotide or 8 fmol DIG-147bp probe; buffer, pH and temperature not stated. Conditions: protein: recombinant; tags: N-terminal GST (pGEX-5X-1); annealed synthetic oligonucleotides.

Data set [2] concerns the target T1, GST-Bsx. Put plainly: EMSA; EMSA: DIG Gel Shift Kit (Roche) per manufacturer, 2.0 pmol GST-Bsx with 32 fmol DIG-oligonucleotide or 8 fmol DIG-147bp probe; buffer, pH and temperature not stated. Conditions: protein: recombinant, tags: N-terminal GST (pGEX-5X-1), label: DIG, annealed synthetic oligonucleotides.

T1 sequence (Q6R3Q6 whole entry): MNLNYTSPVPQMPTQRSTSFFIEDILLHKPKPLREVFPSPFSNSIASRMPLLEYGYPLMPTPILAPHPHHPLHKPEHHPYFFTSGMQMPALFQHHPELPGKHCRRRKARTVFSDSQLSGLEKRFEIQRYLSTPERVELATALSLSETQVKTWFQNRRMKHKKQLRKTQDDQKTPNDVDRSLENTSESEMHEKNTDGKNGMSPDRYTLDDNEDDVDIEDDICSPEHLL

B1: D3 competitor (dsDNA)
DNA 1: GAATTCGATAGATTTAATATTTCAGTCATCAAGCTT
DNA 2: AAGCTTGATGACTGAAATATTAAATCTATCGAATTC
Regarding B1, the binding result in data set [1] is on record as “binds”.

B2: D4 competitor (dsDNA)
DNA 1: GAATTCGATTCTGATAATCTGTGTGTGATCAAGCTT
DNA 2: AAGCTTGATCACACACAGATTATCAGAATCGAATTC
For the molecule B2, in data set [1], the binding result was “binds”.

B3: D2 competitor (dsDNA)
DNA 1: GAATTCGATTGTTTTTAATAAAGATTTATCAAGCTT
DNA 2: AAGCTTGATAAATCTTTATTAAAAACAATCGAATTC
In the case of B3, the binding result in data set [1] was “binds”.

B4: BSXRE probe (dsDNA)
DNA 1: GAATTCGATGGCGCTAATCGGTGGGGGATCAAGCTT
DNA 2: AAGCTTCATCCCCCACCGATTAGCGCCATCGAATTC
As to B4, in data set [2] (36-mer), the binding result is reported as “binds”.

B5: BSXRE-mut probe (dsDNA)
DNA 1: B4 DNA 1 with A17C, T18G, C19A, G20T
DNA 2: B4 DNA 2 with C17A, G18T, A19C, T20G
For B5, in data set [2], the binding result is reported as “no binding”.

B6: P3 competitor (dsDNA)
DNA 1: GAATTCGATCTCCTGTAATCTGCCTAAATCAAGCTT
DNA 2: AAGCTTGATTTAGGCAGATTACAGGAGATCGAATTC
In the case of B6, the binding result in data set [1] is recorded as “binds”.
